Test results: publication PMC10041115, “Cryo-EM structure of the four-subunit Rhodobacter sphaeroides cytochrome bc1 complex in styrene maleic acid nanodiscs” (Proceedings of the National Academy of Sciences of the …, 2023)
Blank lines part the entries; values can stand above or below the molecule they belong to.

Tests used:
[1] = biological target: T1, four-subunit cytochrome bc1 complex (WT) in SMA nanodiscs (Cereibacter sphaeroides, UniProt Q02761+Q02762); assay: cryo-EM structure, […] Å; format: binding; details: natively bound, co-purified; Qo site of one cyt b; isoprene tail truncated in model; redox state not determined; H-bond to Rieske His152
T1 construct: gene petB; native purification from photosynthetically grown cells, SMA lipid nanodisc, His10 tag on cyt c1, dimer; SIV 124 residues, 79-107 resolved; with Cytochrome c1; Ubiquinol-cytochrome c reductase subunit IV

[2] = biological target: T2, cytochrome b subunit of the Rhodobacter sphaeroides cytochrome bc1 complex (Rhodobacter sphaeroides, UniProt Q02761 1-445); assay: cryo-EM structure; details: both partners purified
T2 construct: also called cyt b; source: endogenous, R. sphaeroides grown photosynthetically; SMA-solubilised membranes, purified in native nanodiscs (Ni-NTA, sucrose gradient, SEC)
T2 sequence (looked up): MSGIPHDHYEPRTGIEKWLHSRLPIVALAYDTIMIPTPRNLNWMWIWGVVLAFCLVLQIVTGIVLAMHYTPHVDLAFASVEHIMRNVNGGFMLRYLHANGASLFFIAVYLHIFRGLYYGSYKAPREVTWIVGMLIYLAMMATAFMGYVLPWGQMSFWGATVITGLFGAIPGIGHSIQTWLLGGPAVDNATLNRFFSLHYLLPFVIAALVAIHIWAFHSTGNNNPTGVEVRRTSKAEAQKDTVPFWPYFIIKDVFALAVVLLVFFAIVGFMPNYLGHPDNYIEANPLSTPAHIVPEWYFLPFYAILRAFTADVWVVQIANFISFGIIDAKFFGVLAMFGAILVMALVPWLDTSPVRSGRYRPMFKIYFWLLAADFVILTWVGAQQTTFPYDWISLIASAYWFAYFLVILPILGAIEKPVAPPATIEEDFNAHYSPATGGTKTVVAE

[3] = biological target: the molecule itself; assay: cryo-EM structure; purified four-subunit cyt bc1 in SMA native lipid nanodiscs, no inhibitors added, 20 mM Tris-HCl pH 8, 200 mM NaCl; C1 consensus map at 2.9 Å and a focused class at 3.75 Å (FSC 0.5)

Molecule: COC1=C(OC)C(=O)C(C/C=C(\C)CC/C=C(\C)CC/C=C(\C)CC/C=C(\C)CC/C=C(\C)CC/C=C(\C)CC/C=C(\C)CC/C=C(\C)CC/C=C(\C)CCC=C(C)C)=C(C)C1=O [U10, ubiquinone-10]
cryo-EM structure, 2.9 Å [1]: a ubiquinone-10 molecule bound in the Qo site of one of the cyt b subunits

binding result [2]: binds
B1: Rieske iron-sulfur protein subunit of the Rhodobacter sphaeroides cytochrome bc1 complex (natural protein, UniProt Q02762 1-187, looked up)
chain: MSNAEDHAGTRRDFLYYATAGAGAVATGAAVWPLINQMNPSADVQALASIFVDVSSVEPGVQLTVKFLGKPIFIRRRTEADIELGRSVQLGQLVDTNARNANIDAGAEATDQNRTLDEAGEWLVMWGVCTHLGCVPIGGVSGDFGGWFCPCHGSHYDSAGRIRKGPAPENLPIPLAKFIDETTIQLG
notes: also called Rieske subunit; Rieske ISP; source: endogenous, R. sphaeroides grown photosynthetically; SMA-solubilised membranes, purified in native nanodiscs (Ni-NTA, sucrose gradient, SEC)

B2: four-subunit Rhodobacter sphaeroides cytochrome bc1 complex (one monomer of the dimeric complex: cyt b, cyt c1, Rieske subunit, SIV) (complex)
chain 1: MSGIPHDHYEPRTGIEKWLHSRLPIVALAYDTIMIPTPRNLNWMWIWGVVLAFCLVLQIVTGIVLAMHYTPHVDLAFASVEHIMRNVNGGFMLRYLHANGASLFFIAVYLHIFRGLYYGSYKAPREVTWIVGMLIYLAMMATAFMGYVLPWGQMSFWGATVITGLFGAIPGIGHSIQTWLLGGPAVDNATLNRFFSLHYLLPFVIAALVAIHIWAFHSTGNNNPTGVEVRRTSKAEAQKDTVPFWPYFIIKDVFALAVVLLVFFAIVGFMPNYLGHPDNYIEANPLSTPAHIVPEWYFLPFYAILRAFTADVWVVQIANFISFGIIDAKFFGVLAMFGAILVMALVPWLDTSPVRSGRYRPMFKIYFWLLAADFVILTWVGAQQTTFPYDWISLIASAYWFAYFLVILPILGAIEKPVAPPATIEEDFNAHYSPATGGTKTVVAE
chain 2: AGGGHVEDVPFSFEGPFGTFDQHQLQRGLQVYTEVCAACHGMKFVPIRSLSEPGGPELPEDQVRAYATQFTVTDEETGEDREGKPTDHFPHSALENAADLSLMAKARAGFHGPMGTGISQLFNGIGGPEYIYSVLTGFPEEPPKCAEGHEPDGFYYNRAFQNGSVPDTCKDANGVKTTAGSWIAMPPPLMDDLVEYADGHDASVHAMAEDVSAFLMWAAEPKLMARKQAGFTAVMFLTVLSVLLYLTNKRLWAGVKGKKKTNV
chain 3: MSNAEDHAGTRRDFLYYATAGAGAVATGAAVWPLINQMNPSADVQALASIFVDVSSVEPGVQLTVKFLGKPIFIRRRTEADIELGRSVQLGQLVDTNARNANIDAGAEATDQNRTLDEAGEWLVMWGVCTHLGCVPIGGVSGDFGGWFCPCHGSHYDSAGRIRKGPAPENLPIPLAKFIDETTIQLG
chain 4: MFSFIDDIPSFEQIKARVRDDLRKHGWEKRWNDSRLVQKSRELLNDEELKIDPATWIWKRMPSREEVAARRQRDFETVWKYRYRLGGFASGALLALALAGIFSTGNFGGSSDAGNRPSVVYPIE
notes: also called cyt bc1; cyt bc1-nanodisc complex
stoichiometry N [3]: 2
